The supplement of paper PMC5998384

Key:
HeLa Kyoto [1] = assay: solubility in G1/S (NP-40 vs SDS abundance) (log2 ratio); higher = more soluble; conditions: cell cycle stage: G1/S
HeLa Kyoto [2] = assay: solubility change mitosis vs G1/S (difference of NP-40 vs SDS log2 ratios) (log2 ratio difference); higher = more soluble in mitosis
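Throughout, for solubility change mitosis vs G1/S (difference of NP-40 vs SDS log2 ratios): synchronized HeLa Kyoto cells (double thymidine block for G1/S, nocodazole release for mitosis), protein amounts in NP-40 versus SDS lysates quantified by mass spectrometry, three biological replicates.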
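Throughout, for solubility in G1/S (NP-40 vs SDS abundance): HeLa Kyoto cells arrested at G1/S by double thymidine block, proteins quantified by TMT10plex mass spectrometry in mild NP-40 versus SDS extracts, three biological replicates.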

Row | Substance | solubility in G1/S (log2) (HeLa Kyoto [1]) | solubility change mitosis (log2) (HeLa Kyoto [2])
1 | MDDDKPFQPKNISKMAELFMECEEEELEPWQKKVEETQDEDDDELIFVGEISSSKPAISNILNRGHSSSSSKGIKSEPHSPGIPEIFRTASQRCRDPPSNPVAASPRFHLVSKSSQSSVTVENASKPDFTKNSQVGSDNSSILLFDSTQESLPPSQDIPAIFREGMKNTSYVLKHPSTSKVNSVTPKKPKTSEDVPQINPSTSLPLIGSPPVTSSQVMLSKGTNTSSPYDAGADYLRACPKCNVQFNLLDPLKYHMKHCCPDMITKFLGVIVKSERPCDEDKTDSETGKLIMLVNEFYYGRHEGVTEKEPKTYTTFKCFSCSKVLKNNIRFMNHMKHHLELEKQNNESWENHTTCQHCYRQYPTPFQLQCHIESTHTPHEFSTICKICELSFETEHILLQHMKDTHKPGEMPYVCQVCQFRSSTFSDVEAHFRAAHENTKNLLCPFCLKVSKMATPYMNHYMKHQKKGVHRCPKCRLQFLTSKEKAEHKAQHRTFIKPKELEGLPPGAKVTIRASLGPLQSKLPTAPFGCAPGTSFLQVTPPTSQNTTARNPRKSNASRSKTSKLHATTSTASKVNTSKPRGRIAKSKAKPSYKQKRQRNRKNKMSLALKNIRCRRGIHKCIECHSKIKDFASHFSIYIHCSFCKYNTNCNKAFVNHMMSSHSNHPGKRFCIFKKHSGTLRGITLVCLKCDFLADSSGLDRMAKHLSQRKTHTCQVIIENVSKSTSTSEPTTGCSLK [ZNF280C] | -1.44 | 0.796
2 | MATLWGGLLRLGSLLSLSCLALSVLLLAQLSDAAKNFEDVRCKCICPPYKENSGHIYNKNISQKDCDCLHVVEPMPVRGPDVEAYCLRCECKYEERSSVTIKVTIIIYLSILGLLLLYMVYLTLVEPILKRRLFGHAQLIQSDDDIGDHQPFANAHDVLARSRSRANVLNKVEYAQQRWKLQVQEQRKSVFDRHVVLS [TMEM9B] | -0.235 | -0.12
3 | MAARGRRAWLSVLLGLVLGFVLASRLVLPRASELKRAGPRRRASPEGCRSGQAAASQAGGARGDARGAQLWPPGSDPDGGPRDRNFLFVGVMTAQKYLQTRAVAAYRTWSKTIPGKVQFFSSEGSDTSVPIPVVPLRGVDDSYPPQKKSFMMLKYMHDHYLDKYEWFMRADDDVYIKGDRLENFLRSLNSSEPLFLGQTGLGTTEEMGKLALEPGENFCMGGPGVIMSREVLRRMVPHIGKCLREMYTTHEDVEVGRCVRRFAGVQCVWSYEMQQLFYENYEQNKKGYIRDLHNSKIHQAITLHPNKNPPYQYRLHSYMLSRKISELRHRTIQLHREIVLMSKYSNTEIHKEDLQLGIPPSFMRFQPRQREEILEWEFLTGKYLYSAVDGQPPRRGMDSAQREALDDIVMQVMEMINANAKTRGRIIDFKEIQYGYRRVNPMYGAEYILDLLLLYKKHKGKKMTVPVRRHAYLQQTFSKIQFVEHEELDAQELAKRINQESGSLSFLSNSLKKLVPFQLPGSKSEHKEPKDKKINILIPLSGRFDMFVRFMGNFEKTCLIPNQNVKLVVLLFNSDSNPDKAKQVELMRDYRIKYPKADMQILPVSGEFSRALALEVGSSQFNNESLLFFCDVDLVFTTEFLQRCRANTVLGQQIYFPIIFSQYDPKIVYSGKVPSDNHFAFTQKTGFWRNYGFGITCIYKGDLVRVGGFDVSIQGWGLEDVDLFNKVVQAGLKTFRSQEVGVVHVHHPVFCDPNLDPKQYKMCLGSKASTYGSTQQLAEMWLEKNDPSYSKSSNNNGSVRTA [CHSY1] | -0.388 | 0.159
4 | MERVNDASCGPSGCYTYQVSRHSTEMLHNLNQQRKNGGRFCDVLLRVGDESFPAHRAVLAACSEYFESVFSAQLGDGGAADGGPADVGGATAAPGGGAGGSRELEMHTISSKVFGDILDFAYTSRIVVRLESFPELMTAAKFLLMRSVIEICQEVIKQSNVQILVPPARADIMLFRPPGTSDLGFPLDMTNGAALAANSNGIAGSMQPEEEAARAAGAAIAGQASLPVLPGVDRLPMVAGPLSPQLLTSPFPSVASSAPPLTGKRGRGRPRKANLLDSMFGSPGGLREAGILPCGLCGKVFTDANRLRQHEAQHGVTSLQLGYIDLPPPRLGENGLPISEDPDGPRKRSRTRKQVACEICGKIFRDVYHLNRHKLSHSGEKPYSCPVCGLRFKRKDRMSYHVRSHDGSVGKPYICQSCGKGFSRPDHLNGHIKQVHTSERPHKCQTCNASFATRDRLRSHLACHEDKVPCQVCGKYLRAAYMADHLKKHSEGPSNFCSICNRGFSSASYLKVHVKTHHGVPLPQVSRHQEPILNGGAAFHCARTYGNKEGQKCSHQDPIESSDSYGDLSDASDLKTPEKQSANGSFSCDMAVPKNKMESDGEKKYPCPECGSFFRSKSYLNKHIQKVHVRALGGPLGDLGPALGSPFSPQQNMSLLESFGFQIVQSAFASSLVDPEVDQQPMGPEGK [PATZ1] | -0.643 | 0.402
5 | MRRDVNGVTKSRFEMFSNSDEAVINKKLPKELLLRIFSFLDVVTLCRCAQVSRAWNVLALDGSNWQRIDLFDFQRDIEGRVVENISKRCGGFLRKLSLRGCLGVGDNALRTFAQNCRNIEVLNLNGCTKTTDATCTSLSKFCSKLRHLDLASCTSITNMSLKALSEGCPLLEQLNISWCDQVTKDGIQALVRGCGGLKALFLKGCTQLEDEALKYIGAHCPELVTLNLQTCLQITDEGLITICRGCHKLQSLCASGCSNITDAILNALGQNCPRLRILEVARCSQLTDVGFTTLARNCHELEKMDLEECVQITDSTLIQLSIHCPRLQVLSLSHCELITDDGIRHLGNGACAHDQLEVIELDNCPLITDASLEHLKSCHSLERIELYDCQQITRAGIKRLRTHLPNIKVHAYFAPVTPPPSVGGSRQRFCRCCIIL [FBXL20] | -0.0856 | -0.0226
6 | MKMEEAVGKVEELIESEAPPKASEQETAKEEDGSVELESQVQKDGVADSTVISSMPCLLMELRRDSSESQLASTESDKPTTGRVYESDSSNHCMLSPSSSGHLADSDTLSSAEENEPSQAETAVEGDPSGVSGATVGRKSRRSRSESETSTMAAKKNRQSSDKQNGRVAKVKGHRSQKHKERIRLLRQKREAAARKKYNLLQDSSTSDSDLTCDSSTSSSDDDEEVSGSSKTITAEIPDGPPVVAHYDMSDTNSDPEVVNVDNLLAAAVVQEHSNSVGGQDTGATWRTSGLLEELNAEAGHLDPGFLASDKTSAGNAPLNEEINIASSDSEVEIVGVQEHARCVHPRGGVIQSVSSWKHGSGTQYVSTRQTQSWTAVTPQQTWASPAEVVDLTLDEDSRRKYLL [C18ORF25] | -0.0209 | -0.243
7 | MASPSKAVIVPGNGGGDVTTHGWYGWVKKELEKIPGFQCLAKNMPDPITARESIWLPFMETELHCDEKTIIIGHSSGAIAAMRYAETHRVYAIVLVSAYTSDLGDENERASGYFTRPWQWEKIKANCPYIVQFGSTDDPFLPWKEQQEVADRLETKLHKFTDCGHFQNTEFHELITVVKSLLKVPA [RBBP9] | 0.42 | 0.00166
8 | SYNE1 | -0.526 | 0.198
